Laboratory results: PMC12269619 (2025)
Ends that are not written are not given here.

T1: Biotinylated junctional peptide NPDP19 (Plasmodium falciparum (isolate 3D7), also: biotinylated, position not given here)
T1 chain: KQPADGNPDPNANPNVDPN

B1: m43.151 Fab (Fab, V domains shown)
VH: QVHLVQSGAEVKKPGASVKVSCKASGYTFTSYAIHWVRQAPGQRLEWMGWIKGGNGNTRYSQKFQDRVTITRDTSASTAYMELSSLRSEDTAVYYCALLTVITPDDAFDIWGQGTMVTVSS
VL: not shown
B2: P3-42 Fab (m43.151 A100cR_H) (Fab, V domains shown)
VH: QVHLVQSGAEVKKPGASVKVSCKASGYTFTSYAIHWVRQAPGQRLEWMGWIKGGNGNTRYSQKFQDRVTITRDTSASTAYMELSSLRSEDTAVYYCALLTVITPDDRFDIWGQGTMVTVSS
VL: not shown
B3: P3-21 Fab (m42.127 T99R_H P100Q_H) (Fab, V domains shown)
VH: QVQLVQSGAEVKKPGASVKVSCKASGYTFTSYAIHWVRQAPGQRLEWMGWIKAGNGNTRYSQKFQDRVTITRDTSASTAYMELSSLRSEDTAVYYCALLTVIRQDDTFDIWGQGTMVTVSS
VL: not shown
B4: P3-43 Fab (m43.151 P100K_H) (Fab, V domains shown)
VH: QVHLVQSGAEVKKPGASVKVSCKASGYTFTSYAIHWVRQAPGQRLEWMGWIKGGNGNTRYSQKFQDRVTITRDTSASTAYMELSSLRSEDTAVYYCALLTVITKDDAFDIWGQGTMVTVSS
VL: not shown
B5: m42.127 Fab (Fab, V domains shown)
VH: QVQLVQSGAEVKKPGASVKVSCKASGYTFTSYAIHWVRQAPGQRLEWMGWIKAGNGNTRYSQKFQDRVTITRDTSASTAYMELSSLRSEDTAVYYCALLTVITPDDTFDIWGQGTMVTVSS
VL: not shown
B6: Biotinylated junctional peptide Pep21 (PfCSP peptide 21) (peptide)
peptide: NPDPNANPNVDPNAN
modifications: also: biotinylated, position not given here

Assays:
[1] = target: PfCSPm; assay: BLI; KD2, second site
[2] = target: T1, Biotinylated junctional peptide NPDP19; assay: BLI
[3] = target: PfCSPm; assay: BLI; KD1
[4] = target: B6; assay: BLI
[5] = target: P3-3; assay: BLI
[6] = target: P3-19; assay: BLI
[7] = target: P3-45; assay: BLI
[8] = target: P3-9; assay: BLI
[9] = target: P3-17; assay: BLI
[10] = target: P3-10; assay: BLI
[11] = target: P3-7; assay: BLI

| Binder | Kd [1] | Kd [2] | Kd [3] | Kd [4] | Kd [5] | Kd [6] | Kd [7] | Kd [8] | Kd [9] | Kd [10] | Kd [11] |
| --- | --- | --- | --- | --- | --- | --- | --- | --- | --- | --- | --- |
| B1 | 1.7 µM | 0.0022 µM | 0.0383 µM |  |  |  |  |  |  |  |  |
| B2 | 3.4 µM | 0.0026 µM | 0.013 µM | 0.0145 µM |  |  |  |  |  |  |  |
| B3 | 1.2 µM | 0.002 µM | 0.0202 µM | 0.018 µM |  |  |  |  |  |  |  |
| B4 | 1.7 µM | 0.0017 µM | 0.0339 µM |  |  |  |  |  |  |  |  |
| B5 | 2 µM | 0.0022 µM | 0.0316 µM |  |  |  |  |  |  |  |  |
| B6 |  |  |  |  | 0.0154 µM | 0.0146 µM | 0.019 µM | 0.0218 µM | 0.0178 µM | 0.0204 µM | 0.024 µM |
